According to the nanobody polyreactivity screen of Harvey et al. (2022):

test: yeast display, Sf9 membrane polyspecificity reagent, FACS + sequencing; frameworks hold sequencing errors
Procedure, shortened: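 Nanobodies from a synthetic yeast display library (Saccharomyces cerevisiae BJ5465), induced 36–48 hours with galactose, were stained 1 hour at 4 °C with 10% biotinylated, detergent-solubilized Sf9 membrane reagent, enriched on streptavidin microbeads, then FACS-sorted. Anti-HA (expression) and streptavidin (reagent binding) fluorescence set low and high (top ~1%) gates. Polyreactivity labels come from the gate of origin. Genes were colony-PCR amplified, MiSeq 2 × 250 sequenced and filtered by CDR length.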

With “QVQLVESGGGLVQAGGSLRLSCAASGSTFRQYPMGWYRQAPGKEREMVAAITWRGDNTYYADSVKGRFTISRDNAKKTVYLQMNSLKPEDTAVYYCAARWSYRLYWGYGYWGQGTQVTVSS” as the sequence, how does the “polyreactivity (PSR sort gate)” value read?
The value was “low polyreactivity”.

For “QVQLVESGGGLVQAGGSLRLSCAASGSTFRRNAMGWDRQAPGKERELVATISPGARTNYADSVKGRFTISRDNAKNTVYLQMNSLKPEDTAVYYCNAEYTLLYPLYDYWGQGTQVTVSS”, which “polyreactivity (PSR sort gate)” value is on record?
The value was “low polyreactivity”.

Which “polyreactivity (PSR sort gate)” value does the source give for “QVQLVESGGGLVQAGGSLRLSCAASGSTFRRNAMGWYRPAPGKERELVAAITSTDSTYYADSVKGRFTISRDNAKNTVYLQMNSLKPEDTAVYYCAKGYWWGGQMGYWGQGTQVTVSS” here?
The value was “low polyreactivity”.

With “QVQLVESGGGLVQAGGSLRLSCAASGSTFRRNAMGWYRQAPGKERELVAAISAGGGSTYYADSVKGRFTISRDNAKNTVYLQMNSLKPEDTAVYYCNVAGSGVRRMGYWGQGTQVTVSS” as the sequence, how does the “polyreactivity (PSR sort gate)” value read?
Its value is “high polyreactivity”.

For “QVQLVESGGGLVQAGGSLRLSCAASGSTFRRNAMGWYRQAPGKERELVASISFSGGSTFYADSVKGRFTISRDNAKNTVYLQMNSLKPEDTAVYYCATRYYYSSYEYWGQGTQVTVSS”, which “polyreactivity (PSR sort gate)” value is on record?
The value was “high polyreactivity”.

With “QVQLVESGGGLVQAGGSLRLSCAASGSTFRRNVMGWYRQAPGKERELVAAISRSGGRTYYADSVKGRFTISRDNAKNTVYLQMNSLKPEDTAVYYCNATRAGENPDGGDEYWGQGTQVTVSS” as the sequence, how does the “polyreactivity (PSR sort gate)” value read?
Its value is “high polyreactivity”.

Which “polyreactivity (PSR sort gate)” value does the source give for “QVQLVESGGGLVQAGGSLRLSCAASGSTFRRYAMGWYRQAPGKERELVAAISSNGGSTYYADSVKGRFTISRDNAKNTVYLQMNSLKPEDTAVYYCAAYRSLDFDYWGQGTQVTVSS” here?
Its value is “high polyreactivity”.

Which “polyreactivity (PSR sort gate)” value does the source give for “QVQLVESGGGLVQAGGSLRLSCAASGSTFRRYAMGWYRQAPGKERELVAAITGSGGRTYYADSVKGRFTISRDNAKNTVYLQMNSLIPVDTAVYYCAKEGTFTKGVRLFDYWGQGTQVTVSS” here?
The value was “high polyreactivity”.

Which “polyreactivity (PSR sort gate)” value does the source give for “QVQLVESGGGLVQAGGSLRLSCAASGSTFRRYAMGWYRQAPGKERELVATITSGGRTNYADSVKGRFTISRDNAKNTVYLQMNSLKPEDTAVYYCADRPYFYERSAGYYWGQGTQVTVSS” here?
Its value is “high polyreactivity”.

With “QVQLVESGGGLVQAGGSLRLSCAASGSTFRRYTMGWYRQAPGKERELVAAISRSAGSTSYADSVKGRFTISRDNAKNTVYLQMNSLKPEDTAVYYCNARVPLRQYSNYYWGQGTQVTVSS” as the sequence, how does the “polyreactivity (PSR sort gate)” value read?
The value was “high polyreactivity”.

With “QVQLVESGGGLVQAGGSLRLSCAASGSTFRSNAMGWYRQAPGKERELVAVISTRGGRTYYADSVKGRFTISRDNAKNTVYLQMNSLKPEDTAVYYCNTQISGSPYPYYYWGQGTQVTVSS” as the sequence, how does the “polyreactivity (PSR sort gate)” value read?
The value was “high polyreactivity”.

For “QVQLVESGGGLVQAGGSLRLSCAASGSTFRSNAMGWYRQAPGKERVLVAAISRSGGSTYYADSVKGRFTISRDNAKNSVYLQMNSLKPEDTAVYYCAGRYSRDPRTGDYGYCGQGTQVTVSS”, which “polyreactivity (PSR sort gate)” value is on record?
The value was “low polyreactivity”.

Which “polyreactivity (PSR sort gate)” value does the source give for “QVQLVESGGGLVQAGGSLRLSCAASGSTFRSYAMGWYRQAHGKERELVAAITSGGSTYYADSVKGRFTISRDNAKNTVYLQMNSLKPEDTAVYYCNARRRTRNVPGKRLRGGIYVYWGQGTQVTVSS” here?
Its value is “high polyreactivity”.

With “QVQLVESGGGLVQAGGSLRLSCAASGSTFRSYAMGWYRQAPGKEWELVAAISGDGSTNYADSVKGRFTISRDNAKNTVYLQMNSLKPEDTAVSYCAKDPGYPAPYYDYYYWGQGTQVTVSS” as the sequence, how does the “polyreactivity (PSR sort gate)” value read?
The value was “low polyreactivity”.

For “QVQLVESGGGLVQAGGSLRLSCAASGSTFRTNAMGWYRQAPGKERELVAGITSGTSTNYADSVKGRFTISRDNAKNTVYLQMNSLKPEDTAVYYCNTDRIWYGPEYDYWGQGTQVTVSS”, which “polyreactivity (PSR sort gate)” value is on record?
Its value is “low polyreactivity”.

With “QVQLVESGGGLVQAGGSLRLSCAASGSTFRTYAMGWYRQAPGTEREFVAVISASGGSTYYADSVKGRFTISRDNAKNTVYLQMNSQKPEDTAVYYCNAGRPRFYRSRWYYYGYGYWGQGTQVTVSS” as the sequence, how does the “polyreactivity (PSR sort gate)” value read?
Its value is “high polyreactivity”.
